Consider three proteins from PMC7049728, “The full-length structure of Thermus scotoductus OLD defines the ATP hydrolysis properties and catalytic mechanism of Class 1 OLD family nucleases” (Nucleic Acids Research, 2020).

Data set [1] deals with the molecule itself. The experiment in a line: SEC-MALS; 4 mg/ml loaded on Superdex 200 10/300 Increase; 20 mM HEPES pH 7.5, 150 mM KCl, 5 mM MgCl2, 1 mM DTT; 0.7 ml/min; Ts^FL also in different nucleotide states. (In general: In gel filtration, larger molecules generally elute earlier.)
Substrate in data set [2]: Nc1ncnc2c1ncn2[C@@H]1O[C@H](COP(=O)(O)OP(=O)(O)OP(=O)(O)O)[C@@H](O)[C@H]1O
The experiment in a line: Malachite green phosphate release ATPase assay. It is filed as biochemical, Thermus scotoductus. The note with it: 65°C, 20 mM Tris-HCl pH 8, 50 mM NaCl, 5 mM MgCl2, no DNA (basal).

B1: full-length Thermus scotoductus OLD (enzyme, UniProt E8PLM2 1-528, looked up)
chain: MLKRLQVKNFRCLEDIDLPLGPLTAIVGPNGAGKTTILRAIDLVLGDVWPSLRSFRIPQDFINFDTTRAIEITVHFDPPYTQGSFNITAFRLTCKGEDADFHVDLEPLDEGGNVPRYPSGNPLRVGTDMRNHARVLFLDHRRNLAQHLPSIRGSILGRLLQPVRREFKLQDNFKQVYEQAMDLLRTEQVKQIEKTIAETAKQMLGFLGKDAMKSMEIGFGFADPANPFNSLRLQYRESDLTLPGDELGLGIQSAIVVGIFEAFRQLGEKIGTVIIEEPEMYLHPQAQRYFYRLLCEMADKDQCQIIYSTHSPIFADVNRFEALRLVRKDRDDRVVVSYVREEDKSALDNVRNRFKLGGRFDTARNEVLFAKRALLVEGYGDRVAALQLFNQLEVDPDAECIAVVDCGGKAGIELIVGVCKALDIPFVVVHDEDVWPIDERADEETRRKQEQENKAEQEKNQRIQACAGAERVFVVQPSLEAALGIGRNASDKPYRIAEILKTVDVGQPPDALRPFVEAIRQVTRPMEE
notes: Thermus scotoductus OLD (Class 1 OLD family nuclease), UniProt E8PLM2, full-length, residues 1-525; codon-optimised synthetic gene in pET21b; Dimer by SEC-MALS and by crystal symmetry; The crystal model holds residues 1-142, 149-237 and 245-525; also called Ts^FL; Ts OLD; source: E. coli BL21(DE3), purified (65°C heat step, nickel column, HiTrap Q, SEC)
Usually stoichiometry N stands for a count of units in the complex or per binding partner. Turning to B1, the “stoichiometry N” value in data set [1] worked out at 2.

B2: Thermus scotoductus OLD N-terminal region (residues 1-369) (domain or fragment, UniProt E8PLM2 1-369, looked up)
chain: MLKRLQVKNFRCLEDIDLPLGPLTAIVGPNGAGKTTILRAIDLVLGDVWPSLRSFRIPQDFINFDTTRAIEITVHFDPPYTQGSFNITAFRLTCKGEDADFHVDLEPLDEGGNVPRYPSGNPLRVGTDMRNHARVLFLDHRRNLAQHLPSIRGSILGRLLQPVRREFKLQDNFKQVYEQAMDLLRTEQVKQIEKTIAETAKQMLGFLGKDAMKSMEIGFGFADPANPFNSLRLQYRESDLTLPGDELGLGIQSAIVVGIFEAFRQLGEKIGTVIIEEPEMYLHPQAQRYFYRLLCEMADKDQCQIIYSTHSPIFADVNRFEALRLVRKDRDDRVVVSYVREEDKSALDNVRNRFKLGGRFDTARNEVLF
notes: Thermus scotoductus OLD, UniProt E8PLM2, N-terminal region encompassing the ATPase domain, residues 1-369; in pET21b; also called Ts^NTR; NTR; source: E. coli BL21(DE3), purified (65°C heat step, nickel column, HiTrap Q, SEC)
With B2, the “stoichiometry N” value in data set [1] stood at 2.

B3: Ts OLD (Ts^FL) (Thermus scotoductus SA-01) (protein)
chain: MLKRLQVKNFRCLEDIDLPLGPLTAIVGPNGAGKTTILRAIDLVLGDVWPSLRSFRIPQDFINFDTTRAIEITVHFDPPYTQGSFNITAFRLTCKGEDADFHVDLEPLDEGGNVPRYPSGNPLRVGTDMRNHARVLFLDHRRNLAQHLPSIRGSILGRLLQPVRREFKLQDNFKQVYEQAMDLLRTEQVKQIEKTIAETAKQMLGFLGKDAMKSMEIGFGFADPANPFNSLRLQYRESDLTLPGDELGLGIQSAIVVGIFEAFRQLGEKIGTVIIEEPEMYLHPQAQRYFYRLLCEMADKDQCQIIYSTHSPIFADVNRFEALRLVRKDRDDRVVVSYVREEDKSALDNVRNRFKLGGRFDTARNEVLFAKRALLVEGYGDRVAALQLFNQLEVDPDAECIAVVDCGGKAGIELIVGVCKALDIPFVVVHDEDVWPIDERADEETRRKQEQENKAEQEKNQRIQACAGAERVFVVQPSLEAALGIGRNASDKPYRIAEILKTVDVGQPPDALRPFVEAIRQVTRP
notes: full-length, residues 1-525, C-terminal 6xHis tag (pET21b), codon-optimized, expressed in E. coli BL21(DE3); homodimer
As a reminder, the Km is the concentration of substrate that gives half-maximal velocity. Broadly, the kcat is the maximal rate divided by the concentration of active sites. For the protein B3, in data set [2], the Michaelis constant (Km) came out at 180 ± 26 µM and the kcat was 0.44 ± 0.3 min⁻¹.
